One may read the IC50 as the concentration that inhibits the measured activity by half. High values mean weaker potency in that assay, low ones greater potency in that assay. A word on the Kd: it is the free concentration of one partner at which half of the binding sites on the other are occupied at equilibrium, for simple one-to-one binding.

For assay [1], the target named is T1, human Ang-2 (human, UniProt O15123).
T1 chain: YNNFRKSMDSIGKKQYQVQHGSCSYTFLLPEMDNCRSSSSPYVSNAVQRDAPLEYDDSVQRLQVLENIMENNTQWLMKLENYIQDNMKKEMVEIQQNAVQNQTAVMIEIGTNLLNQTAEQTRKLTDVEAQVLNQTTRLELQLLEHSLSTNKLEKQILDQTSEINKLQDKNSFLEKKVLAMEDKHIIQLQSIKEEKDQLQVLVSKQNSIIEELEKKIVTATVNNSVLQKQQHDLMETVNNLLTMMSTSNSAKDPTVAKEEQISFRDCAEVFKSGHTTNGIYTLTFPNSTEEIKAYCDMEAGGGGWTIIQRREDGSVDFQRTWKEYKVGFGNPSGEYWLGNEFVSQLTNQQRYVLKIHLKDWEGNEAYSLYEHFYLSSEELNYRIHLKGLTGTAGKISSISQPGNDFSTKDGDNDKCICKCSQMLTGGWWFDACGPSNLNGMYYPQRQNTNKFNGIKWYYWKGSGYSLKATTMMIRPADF
Put plainly: competition ELISA vs Tie-2. For orientation: ELISA stands for enzyme-linked immunosorbent assay.

For assay [2], the target named is T1, human Ang-2. Put plainly: competition ELISA vs Tie-2.
In assay [3] the target is T2, mouse Ang-2 (mouse, UniProt O35608).
T2 chain: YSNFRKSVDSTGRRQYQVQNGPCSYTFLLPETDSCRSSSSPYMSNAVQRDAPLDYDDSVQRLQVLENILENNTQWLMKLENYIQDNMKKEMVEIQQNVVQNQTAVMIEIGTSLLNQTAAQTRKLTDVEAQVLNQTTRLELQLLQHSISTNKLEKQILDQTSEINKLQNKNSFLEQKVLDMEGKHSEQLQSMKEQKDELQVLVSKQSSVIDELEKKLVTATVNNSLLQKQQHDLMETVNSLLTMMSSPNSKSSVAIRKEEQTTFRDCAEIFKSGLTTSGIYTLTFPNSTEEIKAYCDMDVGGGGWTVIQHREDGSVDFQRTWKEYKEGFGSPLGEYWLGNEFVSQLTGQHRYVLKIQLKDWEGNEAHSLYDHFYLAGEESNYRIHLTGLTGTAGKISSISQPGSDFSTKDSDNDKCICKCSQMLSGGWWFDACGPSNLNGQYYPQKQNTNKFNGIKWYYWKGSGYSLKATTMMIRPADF
Put plainly: competition ELISA vs Tie-2.

Assay [4] deals with T3, human Ang-1 (human, UniProt Q15389).
T3 chain: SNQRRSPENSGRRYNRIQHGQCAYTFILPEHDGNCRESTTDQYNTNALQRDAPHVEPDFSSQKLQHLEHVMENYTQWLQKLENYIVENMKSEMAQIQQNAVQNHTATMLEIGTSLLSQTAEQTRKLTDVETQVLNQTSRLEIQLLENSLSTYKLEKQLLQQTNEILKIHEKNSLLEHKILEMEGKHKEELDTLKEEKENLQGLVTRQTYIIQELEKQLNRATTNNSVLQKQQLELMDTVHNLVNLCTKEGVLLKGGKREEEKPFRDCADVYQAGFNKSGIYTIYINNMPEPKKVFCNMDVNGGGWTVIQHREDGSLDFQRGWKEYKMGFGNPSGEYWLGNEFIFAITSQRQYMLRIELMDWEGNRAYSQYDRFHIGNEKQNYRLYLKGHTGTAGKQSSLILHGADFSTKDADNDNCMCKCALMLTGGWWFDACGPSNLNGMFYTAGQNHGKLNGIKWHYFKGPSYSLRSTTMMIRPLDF
Put plainly: competition ELISA vs Tie-2.

Assay [5] deals with T1, human Ang-2. Put plainly: SPR. (In general: SPR reads the build-up and loss of mass on a sensor chip optically.)
Assay [6] has as its target T4, rat Ang-2 (rAng-2) (rat, UniProt O35462).
T4 chain: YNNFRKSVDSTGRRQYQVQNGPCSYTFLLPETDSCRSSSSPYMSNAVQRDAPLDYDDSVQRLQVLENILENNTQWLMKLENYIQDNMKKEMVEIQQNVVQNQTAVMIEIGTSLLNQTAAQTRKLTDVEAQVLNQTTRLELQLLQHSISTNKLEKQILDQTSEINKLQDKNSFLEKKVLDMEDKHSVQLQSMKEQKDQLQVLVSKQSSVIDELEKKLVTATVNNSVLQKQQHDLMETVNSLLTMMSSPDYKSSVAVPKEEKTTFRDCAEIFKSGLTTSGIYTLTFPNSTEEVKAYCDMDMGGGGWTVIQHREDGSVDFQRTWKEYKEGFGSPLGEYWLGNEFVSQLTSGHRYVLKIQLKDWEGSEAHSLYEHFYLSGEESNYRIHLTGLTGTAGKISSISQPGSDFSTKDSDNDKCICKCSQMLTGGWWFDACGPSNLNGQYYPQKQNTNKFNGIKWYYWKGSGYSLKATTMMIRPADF
Put plainly: competition ELISA vs Tie-2.

In assay [7] the target is T1, human Ang-2. Put plainly: competition ELISA vs Tie-2.
The target of assay [8] is T3, human Ang-1. Put plainly: competition ELISA vs Tie-2.
Assay [9] deals with T2, mouse Ang-2. Put plainly: competition ELISA vs Tie-2.
In assay [10] the target is T1, human Ang-2. Put plainly: competition ELISA vs Tie-2.

Read-outs that look alike come from different tables or passages of the source. Primed or numbered codes have the meaning given here. Where no end group is shown, it is not given here. [ ]: non-standard residue; d: D form. Fc(3) = Fc: non-antigen-binding fragment of an antibody from proteolytic digestion of a whole antibody (vehicle); Fc(4) = non-antigen-binding fragment of an antibody (from proteolytic digestion of a whole antibody); Fc = immunoglobulin Fc domain fused to the peptide (peptibody); Fc(7) = Fc domain, peptide fused N- or C-terminal to it; Fc″ = Fc domain of the peptibody fusion

In turn, MGAQYKFNPMDELEQTLYEEFLFQHALEGGGGG-{Fc″} [L1-22 (N)] had an IC50 in [1] of 0.09 nM.

Regarding MGAQQKFQPLDELEQTLYEQFMLQQALEGGGGG[Fc(3)] [L1-10 (N)], the IC50 in [2] was 0.06 nM; in [3], 0.06 nM; in assay [4] it was more than 1000 nM; in [1], 0.05 nM; in [6] it was 0.06 nM. The Kd in [5] was 0.77 nM.

Molecule M[Fc(7)]GGGGGAQLQDYCEGVEDPFTFGCENQRLE (not fully specified (bridges); cysteine pairing not given here) [12-9-C2 (C)] returned an IC50 in assay [1] of 1.41 nM. This lies in the single-digit nanomolar range.

B1: Con1 (N) (peptide)
chain: MGAQKRPCEEIFGGCTYQLEGGGGG[Fc]
modifications: not fully specified (bridges); printed as MGAQ-KRPCEEIFGGCTYQLEGGGGG-Fc; cysteine pairing not given here; also: Fc fusion domain at position 26
For B1, the IC50 in [7] is 26 nM; in assay [8], more than 1000 nM; in assay [9], approximately 200 nM.

MGAQTNFQPLDELDQTLYEQWTLQQRLEGGGGG-Fc [L1-C3 (N)]: the IC50 in [1] came to 0.06 nM.

B2: 2xL1 (N) (designed binder)
chain: MGAQKFNPLDELEETLYEQFTFQQGGGGGGGGKFNPLDELEETLYEQFTFQQLEGGGGG[Fc(7)]
For the molecule B2, the IC50 in [7] was determined as 0.65 nM; in assay [9], 0.8 nM.

M[Fc(7)]GGGGGAQLLDYCEGVQDPFTFGCENLDLE (not fully specified (bridges); cysteine pairing not given here) [12-9-5 (C)]: in assay [1], the IC50 amounted to 1.56 nM. This lies in the single-digit nanomolar range.

Molecule MGAQQEYEPLDELDETLYNQWMFHQRLEGGGGG[Fc(3)] [L1-13 (N)] gave an IC50 in assay [1] of 0.05 nM.

For M[Fc(7)]GGGGGAQLQDYCEGVEDPFTFGCEKQRLE (not fully specified (bridges); cysteine pairing not given here) [12-9-C1 (C)], in assay [1], the IC50 stood at 2.68 nM.

In [1], M[Fc(7)]GGGGGAQKLEYCDGMEDPFTQGCDNQSLE (not fully specified (bridges); cysteine pairing not given here) [12-9-2 (C)] returned an IC50 of 8.42 nM.

B3: Con4 (N) 1K-WT (peptide)
chain: MQEECEWDPWTCEHMGSGSATGGSGSTASSGSGSATHLEGGGGG[Fc]
modifications: not fully specified (bridges); cysteine pairing not given here; also: Fc fusion domain at position 45
B3 returned an IC50 in assay [9] of 1.9 nM.

As to M[Fc(4)]GGGGGAQPIRQEECDWDPWTCEHMWEVLE (not fully specified; cysteine pairing not given here) [Con4-44 (C)], the IC50 in [2] is 0.08 nM; in [3], 0.16 nM; in assay [10], 0.09 nM; in assay [4], 43 nM; in [6], 0.22 nM. This molecule gave an equilibrium dissociation constant (Kd) in assay [5] of 0.21 nM.

Molecule MGAQQNFKPMDELEDTLYKQFLFQHSLEGGGGG[Fc(3)] [L1-11 (N)] displayed an IC50 in assay [1] of 0.07 nM. In other words, the picomolar range.

With M[Fc]GGGGGAQTNIQEECEWDPWTCDHMPGKLE (not fully specified; cysteine pairing not given here) [Con4-40 (C)], the IC50 in [2] was 0.2 nM; in assay [3] it was 0.27 nM; in assay [10], 0.1 nM; in assay [4], more than 1000 nM; in assay [6] it was 0.35 nM.

MGAQTKFQPLDELDQTLYEQWTLQQRLEGGGGG-Fc [L1-C2 (N)] came in with an IC50 in [1] of 0.05 nM.

As to MGAQLNFTPLDELEQTLYEQWTLQQSLEGGGGG[Fc(3)] [L1-2 (N)], the IC50 in assay [1] turned out to be 0.04 nM.

B4: TN8-8 (N) (peptide)
chain: MGAQKRPCEEMWGGCNYDLEGGGGGX
modifications: not fully specified (C-terminus, bridges); printed as MGAQ-KRPCEEMWGGCNYDLEGGGGG-Fc; cysteine pairing not given here
Consider B4, for which the values for the IC50 in assay [7], in assay [8] and in [9] were 80 nM, more than 1000 nM and approximately 700 nM, respectively.

B5: C17 (N) (peptide)
chain: MGAQQYGCDGFLYGCMINLEGGGGG[Fc(7)]
modifications: not fully specified (bridges); printed as MGAQ-QYGCDGFLYGCMINLE-GGGGG-Fc; cysteine pairing not given here; also: Fc fusion domain at position 26
Turning to B5, the IC50 was 9 nM in [7], more than 1000 nM in [8] and 13 nM in [9].

B6: Con1-6 (C) (peptide)
chain: M[Fc]GGGGGAQGQDLRPCEDMFGCGTKDWYGLE
modifications: not fully specified (bridges); cysteine pairing not given here; also: Fc fusion domain at position 2
B6 had an IC50 in assay [1] of 8.6 nM.

B7: TN8-14 (N) (peptide)
chain: MGAQHQICKWDPWTCKHWLEGGGGGX
modifications: not fully specified (C-terminus, bridges); printed as MGAQ-HQICKWDPWTCKHWLEGGGGG-Fc; cysteine pairing not given here
For B7, the IC50 in [7] was 45 nM; in [8] it was more than 1000 nM; in assay [9], 33 nM.

The values above are taken from patent US7205275 (dated 2007).
